We go through one substance from IntAct's records for PubMed 11447112.

The target of the experiment is gapa_dicdi gapA (UniProt O00899).
gapa_dicdi gapA, sequence (O00899 whole entry): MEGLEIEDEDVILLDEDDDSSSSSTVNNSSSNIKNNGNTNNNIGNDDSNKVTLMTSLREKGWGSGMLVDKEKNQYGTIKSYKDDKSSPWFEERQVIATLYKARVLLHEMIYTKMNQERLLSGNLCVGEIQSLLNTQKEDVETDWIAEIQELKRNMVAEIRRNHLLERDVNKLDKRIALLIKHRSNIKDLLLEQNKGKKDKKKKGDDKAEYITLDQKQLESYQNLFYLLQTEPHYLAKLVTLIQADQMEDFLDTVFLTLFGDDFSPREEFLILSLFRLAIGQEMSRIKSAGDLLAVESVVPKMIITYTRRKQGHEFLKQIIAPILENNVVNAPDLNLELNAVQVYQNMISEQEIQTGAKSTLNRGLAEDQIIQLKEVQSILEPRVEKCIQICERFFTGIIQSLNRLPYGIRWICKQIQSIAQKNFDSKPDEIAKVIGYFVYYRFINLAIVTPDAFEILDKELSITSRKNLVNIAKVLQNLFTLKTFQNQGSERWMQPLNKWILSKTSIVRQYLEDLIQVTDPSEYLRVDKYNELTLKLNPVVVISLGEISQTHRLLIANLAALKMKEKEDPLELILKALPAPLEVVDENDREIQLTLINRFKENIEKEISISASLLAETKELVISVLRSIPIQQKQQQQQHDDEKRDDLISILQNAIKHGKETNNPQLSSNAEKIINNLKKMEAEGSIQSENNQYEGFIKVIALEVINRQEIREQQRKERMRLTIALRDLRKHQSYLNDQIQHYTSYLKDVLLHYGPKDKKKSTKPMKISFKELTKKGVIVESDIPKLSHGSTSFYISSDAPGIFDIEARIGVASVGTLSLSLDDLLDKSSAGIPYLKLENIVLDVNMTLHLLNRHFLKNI

On to “Rho-related protein rac1A (Dictyostelium discoideum (Slime mold)), P34144 G12N”, for which the “effect of a mutation on the interaction” value was “disrupting interaction”.
